Consider three molecules from patent US20120321591A1 (COVX TECHNOLOGIES IRELAND, published 2012).

Assay [1] has as its target T1, recombinant human VEGF165 (human, UniProt P15692-4 27-191).
T1 construct: also called rhVEGF165
Kind of assay: competition ELISA: VEGF165 binding to coated VEGFR2/Fc; normalized value.

For assay [2], the target named is T1, recombinant human VEGF165. The assay is described as above. This is another data set of the same source.
The target in assay [3] is T2, human angiopoietin-2 protein (human, UniProt O15123 19-496).
T2 construct: also called Ang-2; Ang2
T2 sequence (looked up): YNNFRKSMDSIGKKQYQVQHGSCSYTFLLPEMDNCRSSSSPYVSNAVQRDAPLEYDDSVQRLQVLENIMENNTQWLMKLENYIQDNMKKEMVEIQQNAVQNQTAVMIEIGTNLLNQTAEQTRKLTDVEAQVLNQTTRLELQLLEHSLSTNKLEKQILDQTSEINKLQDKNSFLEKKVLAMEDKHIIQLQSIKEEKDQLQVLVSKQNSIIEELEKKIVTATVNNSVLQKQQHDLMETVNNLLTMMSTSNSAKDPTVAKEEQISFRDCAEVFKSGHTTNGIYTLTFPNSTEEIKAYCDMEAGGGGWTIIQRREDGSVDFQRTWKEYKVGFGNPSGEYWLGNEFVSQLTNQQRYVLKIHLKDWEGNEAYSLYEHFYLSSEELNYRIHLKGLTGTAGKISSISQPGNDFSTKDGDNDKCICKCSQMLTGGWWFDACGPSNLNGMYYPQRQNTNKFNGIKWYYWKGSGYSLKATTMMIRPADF
Nature of the assay: competitive ELISA: Tie-2-Fc binding to coated Ang-2; peptide alone. The protocol: Plates were washed three times with washing buffer (0.1% Tween 20, PBS, pH 7.4) and blocked with Superblock (Scytek), […] at room temperature (“RT”) for 1 hour. […] Plates were washed 3 times with washing buffer. […] Following incubation, 50 ul of 1:5,000 dilution of goat anti-mouse IgG-HRP in Superblock was then added and incubated at RT for one hour. After washing 3 times, […] was added, and incubated for 3-5 minutes. Color development was monitored and stopped with 25 μl of 2 M H₂SO₄. OD450 nm with a correction wavelength of 540 nm was measured.

The target of assay [4] is T2, human angiopoietin-2 protein. Kind of assay: reverse competition ELISA presumed: Ang-2 binding to coated Tie-2-Fc; peptide alone. How it is done:
Plates were washed three times with washing buffer (0.1% Tween 20, PBS, pH 7.4) and blocked with Superblock, 150 μl/well at RT for 1 hour. Plates were washed three times. […] Plates were washed 3 times, and 50 W of streptavidin HRP (1:200 dilution in Superblock) was added at RT for 20 minutes. Plates were washed 3 times, and […] (25 μl TMB+25 μl H₂O₂) substrate solution was added and incubated for 20-30 minutes. Color development was stopped with 25 μl of 2 M H₂SO₄. OD450 nm with a correction wavelength of 540 nm was measured.

Read-outs that look alike come from different tables or passages of the source. Bridges are numbered along the chain shown (N, C = ends). Where no end group is shown, it is not given here.

T1 sequence (P15692 other isoform, or with tags, fused parts or gaps limits assumed): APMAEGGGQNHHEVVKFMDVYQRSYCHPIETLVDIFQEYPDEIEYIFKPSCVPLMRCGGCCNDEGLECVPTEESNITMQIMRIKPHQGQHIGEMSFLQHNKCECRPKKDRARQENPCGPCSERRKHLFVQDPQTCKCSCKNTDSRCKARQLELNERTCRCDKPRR

On to Ac-VEPNCDIHVMWEWECFERL-NH2 (disulfide 5-15 (inferred)) [[VEGF-Peptide] SEQ ID NO:34], for which the IC50 in assay [1] and in assay [2] was 188 nM in each case.

With QKYQPLDELDKTLYDQFMLQQG-NH2 (also: N-terminal acyl cap) [Compound 4021], the 50% inhibitory concentration (IC50) in assay [3] was 25.8 nM; in assay [4], 36.4 nM.

Regarding QXYQPLDELDKTLYDQFMLQQG (N-terminal acyl cap; C-terminal amino cap; Kac 2) [Compound 4022], the figures for the IC50 in assay [3] and in assay [4] were 41.9 nM and 14.4 nM, respectively.
